# Data taken from patent US20250145710A1 (INTEGRAL MOLECULAR, published 2025).
# T1: human CLDN9 (human, UniProt O95484 1-217)
# T1 construct: whole, on cells; also called claudin 9
# T1 sequence (looked up): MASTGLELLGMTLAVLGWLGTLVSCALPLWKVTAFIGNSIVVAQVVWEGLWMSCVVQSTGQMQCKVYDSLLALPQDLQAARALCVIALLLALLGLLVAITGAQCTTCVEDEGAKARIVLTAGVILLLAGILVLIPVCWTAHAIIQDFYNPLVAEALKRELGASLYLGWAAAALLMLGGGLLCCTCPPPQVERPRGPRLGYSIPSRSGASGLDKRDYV
# T2: human CLDN6 (human, UniProt P56747 1-220)
# T2 sequence (looked up): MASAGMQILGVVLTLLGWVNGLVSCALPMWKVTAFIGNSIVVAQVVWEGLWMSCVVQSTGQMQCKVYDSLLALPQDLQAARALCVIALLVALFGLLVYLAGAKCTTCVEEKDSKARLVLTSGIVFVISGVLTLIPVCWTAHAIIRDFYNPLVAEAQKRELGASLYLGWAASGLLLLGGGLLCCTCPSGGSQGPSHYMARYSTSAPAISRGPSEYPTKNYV
# T3: human CLDN4 (human, UniProt O14493 1-209)
# T3 construct: whole, on cells; also called claudin 4
# T3 sequence (looked up): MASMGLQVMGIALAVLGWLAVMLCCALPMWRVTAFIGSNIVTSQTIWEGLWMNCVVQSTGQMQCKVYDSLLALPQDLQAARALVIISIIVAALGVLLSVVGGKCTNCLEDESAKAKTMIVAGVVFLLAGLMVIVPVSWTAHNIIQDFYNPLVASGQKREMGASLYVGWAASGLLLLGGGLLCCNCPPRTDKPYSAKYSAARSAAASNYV
# T4: human CLDN3 (human, UniProt O15551 1-220)
# T4 construct: whole, on cells; also called claudin 3
# T4 sequence (looked up): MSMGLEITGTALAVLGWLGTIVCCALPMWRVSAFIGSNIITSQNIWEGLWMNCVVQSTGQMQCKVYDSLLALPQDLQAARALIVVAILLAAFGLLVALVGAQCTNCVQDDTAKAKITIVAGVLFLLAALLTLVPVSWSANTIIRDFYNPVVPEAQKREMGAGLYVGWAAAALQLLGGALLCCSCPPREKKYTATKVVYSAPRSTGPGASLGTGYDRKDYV
# Key:
# human CLDN9 = target: T1, human CLDN9; assay: binding to cells expressing CLDN9 (FIG. 33B, FIG. 34 text)
# human CLDN6 [1] = target: T2, human CLDN6; assay: cell-based or functional assay
# human CLDN4 = target: T3, human CLDN4; assay: binding to cells expressing CLDN4 (FIG. 34 text)
# human CLDN3 = target: T4, human CLDN3; assay: binding to cells expressing CLDN3 (FIG. 34 text)
# human CLDN6 [2] = target: T2, human CLDN6; assay: flow cytometry on a CLDN negative parental cell line transfected with CLDN6, CLDN4, CLDN3 or CLDN9 (FIG. 12D)
# human CLDN6 [3] = target: T2, human CLDN6; assay: flow cytometry on a CLDN negative parental cell line transfected with CLDN6, CLDN4, CLDN3 or CLDN9 (FIG. 12C)
# human CLDN6 [4] = target: T2, human CLDN6; assay: flow cytometry on a CLDN negative parental cell line transfected with CLDN6, CLDN4, CLDN3 or CLDN9 (FIG. 12A)
binder,measurement,setting,value
"IMC-16-3 scFv-Fab IgG antibody (bispecific antibody, also called IMC-16-3 scFv-Fab IgG bispecific antibody) heavy: EVQLLESGGGLVQPGGSLRLSCAASGFTFSSYAMNWVRQAPGKGLEWVAGISSSGRYTGYADSVKGRFTISRDNSKNTLYLQMNSLRAEDTAVYYCAKSVGSGVSWSGYVATSLDAWGQGTLVTVSSASTKGPSVFPLAPSSKSTSGGTAALGCLVKDYFPEPVTVSWNSGALTSGVHTFPAVLQSSGLYSLSSVVTVPSSSLGTQTYICNVNHKPSNTKVDKKVEPKSCDKTHTCPPCPAPEAAGGPSVFLFPPKPKDTLMISRTPEVTCVVVDVSHEDPEVKFNWYVDGVEVHNAKTKPREEQYNSTYRVVSVLTVLHQDWLNGKEYKCKVSNKALPAPIEKTISKAKGQPREPQVYTLPPSREEMTKNQVSLWCLVKGFYPSDIAVEWESNGQPENNYKTTPPVLDSDGSFFLYSKLTVDKSRWQQGNVFSCSVMHEALHNHYTQKSLSLSPGK light: SYELTQPPSVSVSPGQTARITCSAGSGLYGWYQQKPGQAPVLVIYGTNKRPSGIPERFSGSSSGTTVTLTISGVQAEDEADYYCGSADSSTNAGIFGGGTKLTVLGQPKAAPSVTLFPPSSEELQANKATLVCLISDFYPGAVTVAWKADSSPVKAGVETTTPSKQSNNKYAASSYLSLTPEQWKSHRSYSCQVTHEGSTVEKTVAPTECS scFv: EVQLVESGGGLVQPGGSLRLSCAASGFTFSTYAMNWVRQAPGKGLEWVGRIRSKYNNYATYYADSVKGRFTISRDDSKNTLYLQMNSLRAEDTAVYYCVRHGNFGDSYVSWFAYWGQGTLVTVSSGKPGSGKPGSGKPGSGKPGSQAVVTQEPSLTVSPGGTVTLTCGSSTGAVTTSNYANWVQQKPGKSPRGLIGGTNKRAPGVPARFSGSLLGGKAALTISGAQPEDEADYYCALWYSNHWVFGGGTKLTVLASPKSSDKTHTCPPCPAPEAAGGPSVFLFPPKPKDTLMISRTPEVTCVVVDVSHEDPEVKFNWYVDGVEVHNAKTKPREEQYNSTYRVVSVLTVLHQDWLNGKEYKCKVSNKALPAPIEKTISKAKGQPREPQVYTLPPSREEMTKNQVSLSCAVKGFYPSDIAVEWESNGQPENNYKTTPPVLDSDGSFFLVSKLTVDKSRWQQGNVFSCSVMHEALHNHYTQKSLSLSPGK",binding result,human CLDN9,no binding
same,"cytokine activation assay (IL-6, IL-2, TNF-alpha, IL-8) in human PBMC co-cultured with K562 cells",human CLDN6 [1],~10 fold more potent than RefMAB #3
same,"cytotoxicity assay in OV-90 ovarian cancer cells with human PBMC, two Effector:Target ratios",human CLDN6 [1],~10 fold more potent than RefMAB #3
same,binding result,human CLDN4,no binding
same,binding result,human CLDN3,no binding
"IMC-21-1 IgG-(scFv)2 antibody (bispecific antibody, also called MC-21-1 antibody) heavy: not shown light: SYELTQPPSVSVSPGQTARITCSAGSGLYGWYQQKPGQAPVLVIYGTNKRPSGIPERFSGSSSGTTVTLTISGVQAEDEADYYCGSADSSTNAGIFGGGTKLTVLGQPKAAPSVTLFPPSSEELQANKATLVCLISDFYPGAVTVAWKADSSPVKAGVETTTPSKQSNNKYAASSYLSLTPEQWKSHRSYSCQVTHEGSTVEKTVAPTECS",binding result,human CLDN6 [2],binds
IMC-16-15 scFv-Fab IgG antibody (bispecific antibody) heavy: EVQLLESGGGLVQPGGSLRLSCAASGFTFSSYAMNWVRQAPGKGLEWVAGISSSGRYTGYADSVKGRFTISRDNSKNTLYLQMNSLRAEDTAVYYCAKSMGSGVSWSGYVATSIDVWGQGTLVTVSSASTKGPSVFPLAPSSKSTSGGTAALGCLVKDYFPEPVTVSWNSGALTSGVHTFPAVLQSSGLYSLSSVVTVPSSSLGTQTYICNVNHKPSNTKVDKKVEPKSCDKTHTCPPCPAPEAAGGPSVFLFPPKPKDTLMISRTPEVTCVVVDVSHEDPEVKFNWYVDGVEVHNAKTKPREEQYNSTYRVVSVLTVLHQDWLNGKEYKCKVSNKALPAPIEKTISKAKGQPREPQVYTLPPSREEMTKNQVSLWCLVKGFYPSDIAVEWESNGQPENNYKTTPPVLDSDGSFFLYSKLTVDKSRWQQGNVFSCSVMHEALHNHYTQKSLSLSPGK light: SYELTQPPSVSVSPGQTARITCSAGSGLYGWYQQKPGQAPVLVIYGTNKRPSGIPERFSGSSSGTTVTLTISGVQAEDEADYYCGSADSSTNAGIFGGGTKLTVLGQPKAAPSVTLFPPSSEELQANKATLVCLISDFYPGAVTVAWKADSSPVKAGVETTTPSKQSNNKYAASSYLSLTPEQWKSHRSYSCQVTHEGSTVEKTVAPTECS scFv: EVQLVESGGGLVQPGGSLRLSCAASGFTFSTYAMNWVRQAPGKGLEWVGRIRSKYNNYATYYADSVKGRFTISRDDSKNTLYLQMNSLRAEDTAVYYCVRHGNFGDSYVSWFAYWGQGTLVTVSSGKPGSGKPGSGKPGSGKPGSQAVVTQEPSLTVSPGGTVTLTCGSSTGAVTTSNYANWVQQKPGKSPRGLIGGTNKRAPGVPARFSGSLLGGKAALTISGAQPEDEADYYCALWYSNHWVFGGGTKLTVLASPKSSDKTHTCPPCPAPEAAGGPSVFLFPPKPKDTLMISRTPEVTCVVVDVSHEDPEVKFNWYVDGVEVHNAKTKPREEQYNSTYRVVSVLTVLHQDWLNGKEYKCKVSNKALPAPIEKTISKAKGQPREPQVYTLPPSREEMTKNQVSLSCAVKGFYPSDIAVEWESNGQPENNYKTTPPVLDSDGSFFLVSKLTVDKSRWQQGNVFSCSVMHEALHNHYTQKSLSLSPGK,binding result,human CLDN6 [3],binds
"IMC-2-7 tandem scFv antibody (bispecific antibody, A single-chain tandem scFv (anti-CLDN6 scFv, then anti-CD3 scFv)) scFv: SYELTQPPSVSVSPGQTARITCSAGSGLYGWYQQKPGQAPVLVIYGTNKRPSGIPERFSGSSSGTTVTLTISGVQAEDEADYYCGSADSSTNAGIFGGGTKLTVLGGGGSGGGGSGGGGSEVQLLESGGGLVQPGGSLRLSCAASGFTFSSYAMNWVRQAPGKGLEWVAGISSSGRYTGYADSVKGRFTISRDNSKNTLYLQMNSLRAEDTAVYYCAKSVGSGVSWSGYVATSLDAWGQGTLVTVSSGGGGSEVQLVESGGGLVQPGGSLRLSCAASGFTFSTYAMNWVRQAPGKGLEWVGRIRSKYNNYATYYADSVKGRFTISRDDSKNTLYLQMNSLRAEDTAVYYCVRHGNFGDSYVSWFAYWGQGTLVTVSSGKPGSGKPGSGKPGSGKPGSQAVVTQEPSLTVSPGGTVTLTCGSSTGAVTTSNYANWVQQKPGKSPRGLIGGTNKRAPGVPARFSGSLLGGKAALTISGAQPEDEADYYCALWYSNHWVFGGGTKLTVL",binding result,human CLDN6 [4],binds
